Two molecules from US20120316071A1 (published 2012) can be followed below.

In experiment [1] the target is T1, rHuman EGF R/Fc Chimera, CF (R&D Systems Cat#344-ER) (human, UniProt P00533 25-645).
T1 construct: Bought recombinant protein; also called epidermal growth factor receptor
The experiment can be described thus: ECL multispot (MSD) assay, antigen spotted on plate, Fab in solution; blank spot of this well 204.

Experiment [2] deals with T2, rHuman HGF R/c-MET/Fc Chimera, CF (R&D Systems Cat#358-MT/CF) (human, UniProt P08581 25-932).
T2 construct: Bought recombinant protein; also called HGF R/Fc; hepatocyte growth factor receptor
The experiment is described as above.

In experiment [3] the target is T3, rHuman Notch-1/Fc Chimera, CF (R&D Systems Cat#3647-TK) (human).
T3 construct: Bought recombinant protein
Described as above.

Experiment [4] deals with T4, rHuman CD44/Fc Chimera, CF (R&D Systems Cat#3660-CD) (human, UniProt P16070 21-220).
T4 construct: Bought recombinant protein
Described as above.

Experiment [5] addresses T5, rHuman IGF-1 sR (insulin-like growth factor-1 soluble receptor), CF (R&D Systems Cat#391-GR) (human, UniProt P08069 31-932).
T5 construct: Bought recombinant soluble receptor
The description is as above.

Experiment [6] concerns the target T6, rHuman P-Cadherin/Fc Chimera, CF (R&D Systems Cat#861-PC) (human, UniProt P22223 108-654).
T6 construct: Bought recombinant protein
The description is as above.

The target of experiment [7] is T7, rHuman Erythropoietin R/Fc Chimera, CF (R&D Systems Cat#963-ER) (human, UniProt P19235 25-250).
T7 construct: Bought recombinant protein; also called EPO R; EPO R/Fc
Described as above.

The target in experiment [8] is T8, Recombinant Human DLL4 (R&D Systems Cat#1506-D4/CF) (human, UniProt Q9NR61 27-524).
T8 construct: Bought recombinant protein; also called delta-like protein 4; rHuman DLL4
Described as above.

Experiment [9] addresses T9, rHuman ErbB2/Fc Chimera, CF (R&D Systems Cat#1129-ER) (human, UniProt P04626 23-652).
T9 construct: Bought recombinant protein; also called human epidermal growth factor 2 receptor
Described as above.

In experiment [10] the target is T1, rHuman EGF R/Fc Chimera, CF (R&D …). Kind of experiment: ECL multispot (MSD) assay, antigen spotted on plate, Fab in solution; blank spot of this well 224.
Experiment [11] addresses T2, rHuman HGF R/c-MET/Fc Chimera, CF (R&D …). Described as above.
Experiment [12] addresses T3, rHuman Notch-1/Fc Chimera, CF (R&D …). Described as above.
Experiment [13] addresses T4, rHuman CD44/Fc Chimera, CF (R&D Systems …). Described as above.
The target of experiment [14] is T5, rHuman IGF-1 sR (insulin-like growth …). Described as above.
Experiment [15] has as its target T6, rHuman P-Cadherin/Fc Chimera, CF (R&D …). The experiment is described as above.
Experiment [16] concerns the target T7, rHuman Erythropoietin R/Fc Chimera, CF …. The experiment is described as above.
For experiment [17], the target named is T8, Recombinant Human DLL4 (R&D Systems …). The experiment is described as above.
Experiment [18] addresses T9, rHuman ErbB2/Fc Chimera, CF (R&D …). Described as above.
Experiment [19] addresses T1, rHuman EGF R/Fc Chimera, CF (R&D …). The experiment can be described thus: ECL multispot (MSD) assay, antigen spotted on plate, Fab in solution; blank spot of this well 271.
The target of experiment [20] is T2, rHuman HGF R/c-MET/Fc Chimera, CF (R&D …). The experiment is described as above.
In experiment [21] the target is T3, rHuman Notch-1/Fc Chimera, CF (R&D …). The description is as above.
Experiment [22] has as its target T4, rHuman CD44/Fc Chimera, CF (R&D Systems …). Described as above.
Experiment [23] has as its target T5, rHuman IGF-1 sR (insulin-like growth …). The description is as above.
Experiment [24] concerns the target T6, rHuman P-Cadherin/Fc Chimera, CF (R&D …). Described as above.
Experiment [25] has as its target T7, rHuman Erythropoietin R/Fc Chimera, CF …. Described as above.
The target in experiment [26] is T8, Recombinant Human DLL4 (R&D Systems …). Described as above.
In experiment [27] the target is T9, rHuman ErbB2/Fc Chimera, CF (R&D …). The experiment is described as above.
Experiment [28] has as its target rHuman HGF R/c-MET/Fc Chimera, CF (R&D Systems Cat#358-MT/CF) (human, UniProt P08581 25-932). Kind of experiment: ECL multispot (MSD) assay, antigen spotted on plate, Fab in solution; blank spot of this well 270.
Experiment [29] addresses T10, rHuman Notch-1/Fc Chimera, CF (R&D Systems Cat#3647-TK) (human).
T10 chain: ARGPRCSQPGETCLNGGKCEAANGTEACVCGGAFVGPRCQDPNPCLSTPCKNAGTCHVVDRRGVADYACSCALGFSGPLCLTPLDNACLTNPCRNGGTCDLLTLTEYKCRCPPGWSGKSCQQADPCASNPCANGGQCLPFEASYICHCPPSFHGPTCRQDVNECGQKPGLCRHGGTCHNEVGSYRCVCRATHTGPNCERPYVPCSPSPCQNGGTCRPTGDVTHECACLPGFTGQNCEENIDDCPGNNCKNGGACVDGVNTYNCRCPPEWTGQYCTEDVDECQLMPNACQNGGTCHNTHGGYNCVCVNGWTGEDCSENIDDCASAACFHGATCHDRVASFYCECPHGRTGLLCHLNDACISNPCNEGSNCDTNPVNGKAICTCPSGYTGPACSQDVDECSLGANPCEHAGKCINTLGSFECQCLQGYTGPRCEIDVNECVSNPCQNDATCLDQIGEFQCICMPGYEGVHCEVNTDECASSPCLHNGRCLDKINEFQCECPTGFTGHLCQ
The experiment is described as above.

The target in experiment [30] is rHuman CD44/Fc Chimera, CF (R&D Systems Cat#3660-CD) (human, UniProt P16070 21-220). The description is as above.
In experiment [31] the target is rHuman P-Cadherin/Fc Chimera, CF (R&D Systems Cat#861-PC) (human, UniProt P22223 108-654). The experiment is described as above.
Experiment [32] concerns the target rHuman Erythropoietin R/Fc Chimera, CF (R&D Systems Cat#963-ER) (human, UniProt P19235 25-250). The description is as above.

B1: Fab VH1-46_IGHD6-6*01_IGHJ1*01 S102A/S103P/S104F (APF) & L6_IGKJ1*01 (Fab, V domains shown)
VH: QVQLVQSGAEVKKPGASVKVSCKASGYTFTSYYMHWVRQAPGQGLEWMGIINPSGGSTSYAQKFQGRVTMTRDTSTSTVYMELSSLRSEDTAVYYCAREEYAPFSAEYFQHWGQGTLVTVSS
VL: not shown
notes: Fab made in E. coli (heavy chain in plasmid A with CH1, His6 and Flag tags; kappa light chain in plasmid C); also called APF / parent; H:APF & L:wt
B1: the ECL signal in experiment [1] is 237; in experiment [2], 272; in experiment [3], 334; in experiment [4], 96; in experiment [5], 197; in [6], 208. Further, the ECL signal in experiment [7] was determined as 329; in experiment [8], 2120; in experiment [9], 157; in [10], 279; in experiment [11] it was 275; in experiment [12], 171. For the same molecule, the ECL signal in [13] amounted to 197; in experiment [14], 168; in experiment [15], 171; in [16], 0; in experiment [17] it was 2830; in experiment [18], 149. The ECL signal in experiment [19] came out at 272; in experiment [20], 306; in [21], 257; in experiment [22] it was 189; in experiment [23] it was 241; in [24], 297. In addition, the ECL signal in experiment [25] worked out at 304; in experiment [26] it was 3480; in [27], 330.

B2: Fab VH1-46_IGHD6-6*01_IGHJ1*01 S102A/S103P/S104F/H111F (APFF) & L6_IGKJ1*01 N93Y (Fab, V domains shown)
VH: QVQLVQSGAEVKKPGASVKVSCKASGYTFTSYYMHWVRQAPGQGLEWMGIINPSGGSTSYAQKFQGRVTMTRDTSTSTVYMELSSLRSEDTAVYYCAREEYAPFSAEYFQFWGQGTLVTVSS
VL: EIVLTQSPATLSLSPGERATLSCRASQSVSSYLAWYQQKPGQAPRLLIYDASNRATGIPARFSGSGSGTDFTLTISSLEPEDFAVYYCQQRSYWPPWTFGQGTKVEIKR
notes: Fab made in E. coli (heavy chain in plasmid A with CH1, His6 and Flag tags; kappa light chain in plasmid C); also called APFF / N93Y
Regarding B2, the ECL signal stood at 380 in [28]; 453 in experiment [29]; 333 in experiment [30]; 499 in experiment [31]; 541 in [32].
